Data set [1] relates to TtSmtB (Thermus thermophilus HB27). The data set can be described thus: EMSA. The note with it: cooperative, EMSA as in Fiorentino et al., 2007 (buffer not given here), 0-15 uM protein, 1 nM probe in the competition assay, footprinting in binding buffer, DNase I 1 min …. Background: In EMSA bound probe runs differently from free probe, usually more slowly.
Data set [2] addresses T1, TtSmtB (Thermus thermophilus HB27) (UniProt Q72KG0).
T1 sequence: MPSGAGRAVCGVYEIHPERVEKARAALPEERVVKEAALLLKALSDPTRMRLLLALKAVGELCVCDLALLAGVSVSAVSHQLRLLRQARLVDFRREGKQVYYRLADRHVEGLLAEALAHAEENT
The data set can be described thus: EMSA. The settings on record: EMSA as in Fiorentino et al., 2007 (buffer not given here), 0-15 uM protein, 1 nM probe in the competition assay; footprinting in binding buffer, DNase I 1 min ….

Data set [3] addresses T1, TtSmtB (Thermus thermophilus HB27). The data set can be described thus: competition. The settings on record: EMSA as in Fiorentino et al., 2007 (buffer not given here), 0-15 uM protein, 1 nM probe in the competition assay; footprinting in binding buffer, DNase I 1 min ….
Data set [4] shares this target. Description: DNase I footprinting. The settings on record: EMSA as in Fiorentino et al., 2007 (buffer not given here), 0-15 uM protein, 1 nM probe in the competition assay, DNase I 1 min ….

Regarding 0354p (TTC0354 promoter), in data set [1] (apparent, Hill fit), the Kd is 1.4 µM. On to “AGAGGACGAGGACCCGCATCCTCCAAAGCCTAGCCCCCCTTCGGTCAGGGGGAGATCATGCGCTCAAGCTGGGCCACC (double strand) [TtarsCp (TtarsC promoter)]”, for which the binding result in data set [2] is given as “binds”.

With “CGCCTCGCCGACCGGCACGTGGAGGGCCTGTTGGCGGAGGCCCTGGCCCACGCGGAAGAAAACACTTGACCAGTTGCTCAAATGATGCTACCCTGGGGGCATGAAGGCTCCCAGAGTGCGCGTCTTCCGGGTAGAGGGCATGG (double strand) [0354p (TTC0354 promoter)]”, the Kd in data set [2] came out at 1.4 µM. The binding entry in data set [3] and in data set [4] was “binds” throughout. In the case of “CTCCTTGACCACCCTCTCCTCGGGCAGGGCGGCCCGGGCCTTCTCCACCCTTTCCGGGTGGATCTCGTAGACCCCGCAGACCGCCCTACCAGCCCCGCTTGGCAAGCCTTTCCTCCTCCTTGAGCTGGTCCAGGTTGATGCCCACCATG (double strand) [TtsmtBp (TtsmtB promoter)]”, in data set [2], the Kd worked out at 5 µM.

As for TtsmtBp (TtsmtB promoter), the Kd in data set [1] (multiple complexes) was found to be 5 µM.

Source of the values: PMC5658604.
